# Laboratory results as given in paper PMC5081367.
# B1: wild type Lck (WT) [not stated] / receptor for activated C kinase 1 (RACK1), endogenous in NIH3T3 [mouse (endogenous in NIH3T3)] (parent)
# chain 1: MGCVCSSNPEDDWMENIDVCENCHYPIVPLDSKISLPIRNGSEVRDPLVTYEGSLPPASPLQDNLVIALHSYEPSHDGDLGFEKGEQLRILEQSGEWWKAQSLTTGQEGFIPFNFVAKANSLEPEPWFFKNLSRKDAERQLLAPGNTHGSFLIRESESTAGSFSLSVRDFDQNQGEVVKHYKIRNLDNGGFYISPRITFPGLHDLVRHYTNASDGLCTKLSRPCQTQKPQKPWWEDEWEVPRETLKLVERLGAGQFGEVWMGYYNGHTKVAVKSLKQGSMSPDAFLAEANLMKQLQHPRLVRLYAVVTQEPIYIITEYMENGSLVDFLKTPSGIKLNVNKLLDMAAQIAEGMAFIEEQNYIHRDLRAANILVSDTLSCKIADFGLARLIEDNEYTAREGAKFPIKWTAPEAINYGTFTIKSDVWSFGILLTEIVTHGRIPYPGMTNPEVIQNLERGYRMVRPDNCPEELYHLMMLCWKERPEDRPTFDYLRSVLDDFFTATEGQYQPQP
# chain 2: not shown
# Variants of: B1
# Assay: co-immunoprecipitation (IP: RACK1, blot anti-Lck), quantified
# Settings: with receptor for activated C kinase 1 (RACK1), NIH3T3 Lck infectants, three independent experiments, mean ± SD, parent: 1, read off a plot
row,screen value,Variant
1,0.38,chain 1 R154K Y505F
2,0.12,chain 1 W97K Y505F
3,1,chain 1 Y505F
